Where a chain is given by its changes, count along the chain named. Numbers in names are those of the source.
T1: Human CD3eg linker (human)
T1 construct: single-chain construct; also called recombinant human CD3
T1 chain: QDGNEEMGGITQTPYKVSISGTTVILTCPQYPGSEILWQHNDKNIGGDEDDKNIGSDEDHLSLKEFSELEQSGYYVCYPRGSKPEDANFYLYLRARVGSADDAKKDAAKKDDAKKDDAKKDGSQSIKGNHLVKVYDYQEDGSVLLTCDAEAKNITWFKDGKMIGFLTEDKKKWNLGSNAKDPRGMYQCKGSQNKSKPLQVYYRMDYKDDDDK

B1: dBBDu183H H93E/dBBDu072L (antibody, name in Kabat numbering, V domains shown)
VH: QVQLVESGGGLVQPGRSLRLSCAASGFTFSNAWMHWVRQAPGKGLEWVAQIKDKGNAYAAYYAPSVKGRFTISRDDSKNSIYLQMNSLKTEDTAVYYCEYVHYASASTVLPAFGVDAWGQGTTVTVSS
VL: DIVMTQSPLSLPVTPGEPASISCQASQELVHMNRNTYLHWYQQKPGQAPRLLIYKVSNRFPGVPDRFSGSGSGTDFTLKISRVEAEDVGVYYCAQGTSVPFTFGQGTKLEIK
B2: dBBDu183H H93F/dBBDu072L (antibody, name in Kabat numbering, V domains shown)
VH: B1 VH with E99F
VL: B1 VL
B3: dBBDu183H H93G/dBBDu072L (antibody, name in Kabat numbering, V domains shown)
VH: B1 VH with E99G
VL: B1 VL
B4: dBBDu183H H93K/dBBDu072L (antibody, name in Kabat numbering, V domains shown)
VH: B1 VH with E99K
VL: B1 VL
B5: dBBDu183H H93N/dBBDu072L (antibody, name in Kabat numbering, V domains shown)
VH: B1 VH with E99N
VL: B1 VL
B6: dBBDu183H H93Q/dBBDu072L (antibody, name in Kabat numbering, V domains shown)
VH: B1 VH with E99Q
VL: B1 VL
B7: dBBDu183H H93R/dBBDu072L (antibody, name in Kabat numbering, V domains shown)
VH: B1 VH with E99R
VL: B1 VL
B8: dBBDu183H H93S/dBBDu072L (antibody, name in Kabat numbering, V domains shown)
VH: B1 VH with E99S
VL: B1 VL
B9: dBBDu183H H93T/dBBDu072L (antibody, name in Kabat numbering, V domains shown)
VH: B1 VH with E99T
VL: B1 VL
B10: dBBDu183H H93V/dBBDu072L (antibody, name in Kabat numbering, V domains shown)
VH: B1 VH with E99V
VL: B1 VL
B11: dBBDu183H H93W/dBBDu072L (antibody, name in Kabat numbering, V domains shown)
VH: B1 VH with E99W
VL: B1 VL
B12: dBBDu183H H93Y/dBBDu072L (antibody, name in Kabat numbering, V domains shown)
VH: B1 VH with E99Y
VL: B1 VL
B13: dBBDu183H H96D/dBBDu072L (antibody, name in Kabat numbering, V domains shown)
VH: B1 VH with E99H, H102D
VL: B1 VL
B14: dBBDu183H H96E/dBBDu072L (antibody, name in Kabat numbering, V domains shown)
VH: B1 VH with E99H, H102E
VL: B1 VL
B15: dBBDu183H H96F/dBBDu072L (antibody, name in Kabat numbering, V domains shown)
VH: B1 VH with E99H, H102F
VL: B1 VL
B16: dBBDu183H H96G/dBBDu072L (antibody, name in Kabat numbering, V domains shown)
VH: B1 VH with E99H, H102G
VL: B1 VL
B17: dBBDu183H H96K/dBBDu072L (antibody, name in Kabat numbering, V domains shown)
VH: B1 VH with E99H, H102K
VL: B1 VL
B18: dBBDu183H H96N/dBBDu072L (antibody, name in Kabat numbering, V domains shown)
VH: B1 VH with E99H, H102N
VL: B1 VL
B19: dBBDu183H H96Q/dBBDu072L (antibody, name in Kabat numbering, V domains shown)
VH: B1 VH with E99H, H102Q
VL: B1 VL
B20: dBBDu183H H96R/dBBDu072L (antibody, name in Kabat numbering, V domains shown)
VH: B1 VH with E99H, H102R
VL: B1 VL
B21: dBBDu183H H96S/dBBDu072L (antibody, name in Kabat numbering, V domains shown)
VH: B1 VH with E99H, H102S
VL: B1 VL
B22: dBBDu183H H96T/dBBDu072L (antibody, name in Kabat numbering, V domains shown)
VH: B1 VH with E99H, H102T
VL: B1 VL
B23: dBBDu183H H96V/dBBDu072L (antibody, name in Kabat numbering, V domains shown)
VH: B1 VH with E99H, H102V
VL: B1 VL
B24: dBBDu183H H96W/dBBDu072L (antibody, name in Kabat numbering, V domains shown)
VH: B1 VH with E99H, H102W
VL: B1 VL
B25: dBBDu183H H96Y/dBBDu072L (antibody, name in Kabat numbering, V domains shown)
VH: B1 VH with E99H, H102Y
VL: B1 VL
B26: dBBDu183H K64D/dBBDu072L (antibody, name in Kabat numbering, V domains shown)
VH: B1 VH with K67D, E99H
VL: B1 VL
B27: dBBDu183H K64E/dBBDu072L (antibody, name in Kabat numbering, V domains shown)
VH: B1 VH with K67E, E99H
VL: B1 VL
B28: dBBDu183H K64F/dBBDu072L (antibody, name in Kabat numbering, V domains shown)
VH: B1 VH with K67F, E99H
VL: B1 VL
B29: dBBDu183H K64G/dBBDu072L (antibody, name in Kabat numbering, V domains shown)
VH: B1 VH with K67G, E99H
VL: B1 VL
B30: dBBDu183H K64H/dBBDu072L (antibody, name in Kabat numbering, V domains shown)
VH: B1 VH with K67H, E99H
VL: B1 VL
B31: dBBDu183H K64N/dBBDu072L (antibody, name in Kabat numbering, V domains shown)
VH: B1 VH with K67N, E99H
VL: B1 VL
B32: dBBDu183H K64Q/dBBDu072L (antibody, name in Kabat numbering, V domains shown)
VH: B1 VH with K67Q, E99H
VL: B1 VL
B33: dBBDu183H K64R/dBBDu072L (antibody, name in Kabat numbering, V domains shown)
VH: B1 VH with K67R, E99H
VL: B1 VL

Molecular target: T1, Human CD3eg linker
Assay: SPR, vs unmutated H183/L072

B1 and B2 are the same in “fold change of affinity” value: 0 fold for the first, 0 fold for the second.

Compared with B3, B4 is higher in “fold change of affinity” value: 0 fold for the first, 0.2 fold for the second.

B5 and B6 are the same in “fold change of affinity” value: 0 fold for the first, 0 fold for the second.

Going from B7 to B8, the “fold change of affinity” value falls from 2.4 fold to 0 fold.

B9 and B10 are the same in “fold change of affinity” value: 0 fold for the first, 0 fold for the second.

B11 and B12 are the same in “fold change of affinity” value: 0 fold for the first, 0 fold for the second.

B13 and B14 are the same in “fold change of affinity” value: 0 fold for the first, 0 fold for the second.

Going from B15 to B16, the “fold change of affinity” value rises from 0 fold to 0.2 fold.

Going from B17 to B18, the “fold change of affinity” value falls from 0.6 fold to 0 fold.

B19 and B20 are the same in “fold change of affinity” value: 0.3 fold for the first, 0.3 fold for the second.

Compared with B21, B22 is lower in “fold change of affinity” value: 0.2 fold for the first, 0 fold for the second.

B23 and B24 are the same in “fold change of affinity” value: 0 fold for the first, 0 fold for the second.

First: B25
Second: B26
The “fold change of affinity” value of the first is lower: 0 fold for the first, 1 fold for the second.

Compared with B27, B28 is higher in “fold change of affinity” value: 1 fold for the first, 1.3 fold for the second.

B29 and B30 are the same in “fold change of affinity” value: 1 fold for the first, 1 fold for the second.

B31 and B32 are the same in “fold change of affinity” value: 1 fold for the first, 1 fold for the second.

With B33 the “fold change of affinity” value was 0.9 fold.

Source: patent US20210388087A1 (Chugai, published 2021)
